Measurements from IntAct's records for PubMed 18786395.

B1: FH1/FH2 domain-containing protein 1 (Homo sapiens), Q9Y613 (parent)
chain: MAGGEDRGDGEPVSVVTVRVQYLEDTDPFACANFPEPRRAPTCSLDGALPLGAQIPAVHRLLGAPLKLEDCALQVSPSGYYLDTELSLEEQREMLEGFYEEISKGRKPTLILRTQLSVRVNAILEKLYSSSGPELRRSLFSLKQIFQEDKDLVPEFVHSEGLSCLIRVGAAADHNYQSYILRALGQLMLFVDGMLGVVAHSDTIQWLYTLCASLSRLVVKTALKLLLVFVEYSENNAPLFIRAVNSVASTTGAPPWANLVSILEEKNGADPELLVYTVTLINKTLAALPDQDSFYDVTDALEQQGMEALVQRHLGTAGTDVDLRTQLVLYENALKLEDGDIEEAPGAGGRRERRKPSSEEGKRSRRSLEGGGCPARAPEPGPTGPASPVGPTSSTGPALLTGPASSPVGPPSGLQASVNLFPTISVAPSADTSSERSIYKARFLENVAAAETEKQVALAQGRAETLAGAMPNEAGGHPDARQLWDSPETAPAARTPQSPAPCVLLRAQRSLAPEPKEPLIPASPKAEPIWELPTRAPRLSIGDLDFSDLGEDEDQDMLNVESVEAGKDIPAPSPPLPLLSGVPPPPPLPPPPPIKGPFPPPPPLPLAAPLPHSVPDSSALPTKRKTVKLFWRELKLAGGHGVSASRFGPCATLWASLDPVSVDTARLEHLFESRAKEVLPSKKAGEGRRTMTTVLDPKRSNAINIGLTTLPPVHVIKAALLNFDEFAVSKDGIEKLLTMMPTEEERQKIEEAQLANPDIPLGPAENFLMTLASIGGLAARLQLWAFKLDYDSMEREIAEPLFDLKVGMEQLVQNATFRCILATLLAVGNFLNGSQSSGFELSYLEKVSEVKDTVRRQSLLHHLCSLVLQTRPESSDLYSEIPALTRCAKVDFEQLTENLGQLERRSRAAEESLRSLAKHELAPALRARLTHFLDQCARRVAMLRIVHRRVCNRFHAFLLYLGYTPQAAREVRIMQFCHTLREFALEYRTCRERVLQQQQKQATYRERNKTRGRMITETEKFSGVAGEAPSNPSVPVAVSSGPGRGDADSHASMKSLLTSRPEDTTHNRRSRGMVQSSSPIMPTVGPSTASPEEPPGSSLPSDTSDEIMDLLVQSVTKSSPRALAARERKRSRGNRKSLRRTLKSGLGDDLVQALGLSKGPGLEV

Variants of: B1
Conditions: with rash_human HRAS

effect of a mutation on the interaction	Variant
increasing interaction	P41K
